From the DeepSol protein solubility set

Test: soluble on expression in E. coli; label from the status in PepcDB or PDB records

Sequence	soluble on expression in E. coli
MGSDKIHHHHHHMVKAVVLLSGGLDSATVLAIARQQGYECYALSVSYGQRHGAELAAAKNLARSLGATAHKIIQVDLSTFGGSALIDKEREIPTDGVTPGIPSTYVPARNTIMLSIALAWAEVLGSGDIFIGVNAIDYSGYPDCRPEYIEAFETMANVATKAGIEGTRLAIHAPLMNLSKAEIIKRGGVLGVDYSMTVSCYQADDAGLACGVCDSCRLRRAGFESADVPDVTRYHAGFRQTPAS	not soluble
MSLREYIKEGIKLAVTNIPEDVVSAIREALEREESKIAKYNLEMILKAIDISRKEGIPVCQDTGTPIFFVRTNGPINKIYDEIVKGVEIATREVPLRPNALHVLDGKVIGNVPEVHFEPGKETLISILMKGGGSENCTALFPLTPAEGLEGVKNKVIEHVQSCGGKPCPPIIVGIGIASPAEKAIILAKKALLRRISERHPNEKLAKFERELLEEINSLGIGPMGLGGRTTALDVKVEVETRHPASYIVGVVIQCWAHRRAFIKVSEGGVKIWQEGGSHHHHHH	soluble
MGSDKIHHHHHHAQESLFLKDPSTKNKLLQLDLDVGTCFDLAYRGKGNMYTAMSDRKSVFPAINLRLQHFFSRKWGWYTNIRLGIPVKYRRDCYTELVHAVEADYYVNNLIPGTQKPDVNPCLDFGVAYRFENSHWAFYPRLGIGVNSISYQRVCAELKKKGGNELYKIEYRGDDESNYGSESIDAFILSAGITANYKLSRNCFLLLNVNYIQPLGRFTYRKYVTDLYTGEKVERGVYKSSTFARDLNVSVGFGFPFYLGRKTNRKSSHRERTRQLMEQKRKTYGLFPGNK	not soluble
MKIMINPKYEYLREYVERIPKDFETIGTVIHSGRNLIKMITVDGLDINVKRYTIPPLINRIAYAFFRPSKGKRAFVYPEKLLEKGFETPCPIAYIEETKMGLIGHSYFMSIQSPYRYNFCQFGNADIKSCEDVVTAFAEFTARLHEAGILHLDYSPGNILYDKIGEEYHFSLVDINRMHFGEVDIKKGCANFARLWGQTPFFILLGKEYAHSRGMDEEECVRLVLHYRKKFWNRYRRRHQVWFQLDI	not soluble
HHHHHHMTTINPTNYTLLKKQAASLIEDEHHMIAILSNMSALLNDNLDQINWVGFYLLEQNELILGPFQGHPACVHIPIGKGVCGTAVSERRTQVVADVHQFKGHIACDANSKSEIVVPIFKDDKIIGVLDIDAPITDRFDDNDKEHLEAIVKIIEKQLA	soluble
MGSDKIHHHHHHRYSLLYVPNSFIVPGGRFREFYYWDAYWIIKGLIASDMYNTTRSMIRNLASMVDKYGFVPNGGRVYYLQRSQPPFLAAMVYELYEATNDKAFVAELLPTLLKELNFWNEKRMTDVQMNGKSFKVYQYKTASNVPRPESYRVDTQNSAKLANGADQQQFYQDLASAAESGWDFSTRWFSDYKTLTSIETTKVLPVDLNGLLCWNMDIMEYLYEQIGDTKNSQIFRNKRADFRDTVQNVFYNRTDGTWYDYNLRTQSHNPRFYTSTAVPLFTNCYNTLNTGKSQKVFDYMDKMGVFTYPGGIPTSMSQESDQQWDFPNGWSPNNHMIIEGLRKSANPEMQDKGFLIASKWVMGNFRVFYETGHMWEKYNVIGSYPQPGSGGEYDVQDGFGWSNGAILDLLLTYNDRLFVPENFVNTTVTPSVESTTKSAPKYAKLPWVLVFAFMIRQLFNY	not soluble
MGENSLWNVYKTVSFWKVMKNFIIIQIARYTPCLSVKNWLYRTFLRMKVGKKTSFALMVMPDIMFPEKITVGENSIIGYNTTLLAHEYLIREYRLGEIVIGNEVMIGANVTILPGVKIGDGATVSAGTLVHRDVPSGAFVGGNPMRIIYTKEQMTAREGLEHHHHHH	not soluble
MSLTSNIFSGCMPALMTPCKADRSPDFDALVKKGKELIEAGMSAVVYCGSMGDWPLLTDEQRMEGVERLVKAGVPVVVGTGAVNTRVAVAHAAHAAKVGARGLMVIPRVLSRGSSVSAQRNHFSDILKAAPSLPAVIYNSPYYGFATRADLFFDLRREFPNLIGFKEFGGLADLRYAAENITSQDDQVTLMVGVDTAVYHGFVNCGATGAITGIGNALPKEVLHLVALCQKAAEGHAEARLRARELEEALAVLSSFDEGSDLVLYYKHLMVLNGEDEYRLHFNETDALSDAQRNYAEAQYELFRTWYADWSTKGEGHHHHHH	soluble
MNAQRVVVMGLGNLLWADEGFGIRVAERLYARYHWPEEVEIVDGGTQGLNLLGYVEQASHLLLLDAIDYGLAPGSLRTYAGEKIPAYLSAKKMSLHQNSFSEVLALADIRGHLPCHIALVGLQPALLDDYGGSLSEIARSQLPAAEQAALAQLAAWGIVPQANEVARCLNYKCLSMENYEGVRIRQYQTRLEGKRSGE	not soluble
MSLKYNDNFQTILRHGVEKQVALLDADIFMENGQDDVELQMRQFRNLVNSKVDAIVVAMVNGKSAAEMMRLANEAKVPLVFVNRNPEPAKWPALTAFVGSDELESGTLQMEELARRAGYKGNVVILVGDPSNKSSVMRTEDVEKVVAKYPNMKVVQKKIGNWERSQAATIVIDWVKQGVDFSIVAANNDEMAIGAIMGLEKAGKNARDYLVGGIDGTPDGLKLMAEGKMAVSVFQDAVGQANGAVDAALSMARGETLASPVIWVPFKLITPENRQQFEEGHHHHHH	soluble
MDKKPLNTLISATGLWMSRTGTIHKIKHHEVSRSKIYIEMACGDHLVVNNSRSSRTARALRHHKYRKTCKRCRVSDEDLNKFLTKANEDQTSVKVKVVSAPTRTKKAMPKSVARAPKPLENTEAAQAQPSGSKFSPAIPVSTQESVSVPASVSTSISSISTGATASALVKGNTNPITSMSAPVQASAPALTKSQTDRLEVLLNPKDEISLNSGKPFRELESELLSRRKKDLQQIYAEERENYLGKLEREITRFFVDRGFLEIKSPILIPLEYIERMGIDNDTELSKQIFRVDKNFCLRPMLAPNLYNYLRKLDRALPDPIKIFEIGPCYRKESDGKEHLEEFTMLNFCQMGSGCTRENLESIITDFLNHLGIDFKIVGDSCMVYGDTLDVMHGDLELSSAVVGPIPLDREWGIDKPWIGAGFGLERLLKVKHDFKNIKRAARSESYYNGISTNL	soluble
MTNKKKEITIHSSAAEYLTYVASTGRNSDSFEMRYEDENIWLTQKMMATLYDVSVSAINQHLKRIFEDDELVEESVIKKYLITASDGKSYSTKHYNLQAIIAVGFKVNNDRAVRFRKWAGQIVKDYTIQGWTMDKERLKKGHMFTDEYFERQLENIREIRLSERKFYQKVTDLYATAFDYDKDAKTTRQFFKMVQNKMHWAVHRHTAAELIVERANAEKEHMGLTTWESAPDGKIVKADVTVAKNYLSEKEMSYLQRIVSLYLDYAELQAERRIPMSMEDWAKRLDGFLEFNGNELLMGLGKVSAEQAKLHAETEFEKYRIVQDRLFMSDYDKYLIELEHQADQSDV	not soluble
MGSDKIHHHHHHMEDLQRLYPIGIQTFSKIREGNFLYVDKTEYVYRMTHSASSYMFLSRPRRFGKSLLTSTLHSYFSGREELFRGLAMEKLEKEWIQYPVLHFDMSMAKHVDKDKLMNLLDFMLTEHERTLGIDAAGTDPNLRLTNLIKRAYEQTGRKVVVLIDEYDAPLLDVVHERENLGVLRDVMRNFYSPLKACDPYLRYVFLTGITKFSQLSIFSELNNIKNISMDEPYAAICGITENEILTQMKEDVDRMAVKLNITAEEVLAKLKENYDGYHFTYPSPDIYNPFSLLNAFADGKFNSYWFGSGTPTYLIKMLDKFGVEPSEIGNKLAAVEEFDAPTETMSSITPLLYQSGYVTIKDYDKELELYTLDIPNKEVRVGLMRSLLPYYVTNDTREATNMVAFISRDIR	not soluble
MERECEESVVVAVVTEPRFTQRYRDYLEEQKLLDRLHRVAKLRDGAVALPVLAESLSEQHLQELRDRVAPGSTCVLTRLPDPLPSKKARVRSPAQILCLEVRRWVEDRGVTWSAELEADLPRSWQRHGDLMLLSEDCFQATLWKGLEPELWETVASALGVQRLAKRGRVLPDGTRTPSVTLLLGDHGWVEHMDNGIRYKFDVTQCMFSFGNITEKLRVASLSCAGEVLVDLYAGIGYFTLPFLVHAGAAFVHACEWNPHAVVALRNNLEINGVADRCQIHFGDNRKLKLSDIADRVNLGLIPSSKEGWPVACQVLRKDVGGILHIHQNVESFSGKTPQPPGSNNVEKEHWPRPQKITTDTQGNGTTENFRGEISSANKPEWWRWAESAETQIASLLHQVHGKPWRTRILHVHPVKSYAPHVDHIVLDLECRPLTSSWPEGVDLLTQ	soluble
MLLNLFNEMRAAKVPVSLRELLDLINALKQRVIFADIDEFYFLARTILVKDERHFDKFDRAFGAYFNGLEKLDDHLQALIPEDWLRKEFERSLSDEERAQIQSLGGLDKLIDEFKKRLEEQKERHAGGNKWIGTGGTSPFGSGGYNPEGIRVGDAGERKGKAVKVWDQREYKNLDDQVDLGTRNIKVALRRLRKFARQGAADELDIDGTIDHTARDAGLLNIQMRPERRNTIKLLLLFDIGGSMDSHVKVCEELFSACKTEFKHMEYFYFHNFIYETVWKNNLRRGSERTATQDLLHKYGADYKVIFIGDASMAPYEITQPGGSVEHWNEEAGYVWMQRFMAKFKKVIWINPYPKDAWDYTTSTHIVRDLIEQHMYPLTLQGLEDGMRYLA	not soluble
MGSDKIHHHHHHAGFGVAGLSEKTYKTVLNTNMGALYSPSLSAQVVDGACYLINYELDLNSPENANAATNGYLTATISVADEITKGQPVFYNVPDSASLLQNEIPVKNLFSNGDYGVYVDGYLFFFITMDMFKDQKNSYTLYWDRSKEPTMVDNVPTYDLFLRVAKVADGTGSAASSIGEVRAFNVKSVLESVNSAEANKDSKSFNLKVNYLNTINEKDSTDLKWASYTVLFQVVKNS	not soluble
MRILDYDKVIERILEFIREKGNNGVVIGISGGVDSATVAYLATKALGKEKVLGLIMPYFENKDVEDAKLVAEKLGIGYKVINIKPIVDSFVENLELNLDRKGLGNIMSRTRMIMLYAHANSLGRIVLGTSNRSEFLTGYFTKWGDGASDYAPIINLYKTEVWEIAKRIGVPERIVKKKPSAGLWEGQTDEDELGISYNLLDEILWRMIDLKIGKEEIAKDLGIPLSLVERVEELIKKSEHKRRLPIGPSFEDLIVGP	soluble
MHHHHHHSSGVDLGTENLYFQSMKLIRVENFEAYFKKQQADSNCGFAEEYEDLKLVGISQPKYAAELAENRGKNRYNNVLPYDISRVKLSVQTHSTDDYINANYMPGYHSKKDFIATQGPLPNTLKDFWRMVWEKNVYAIIMLTKCVEQGRTKCEEYWPSKQAQDYGDITVAMTSEIVLPEWTIRDFTVKNIQTSESHPLRQFHFTSAPDHGVPDTTDLLINFRYLVRDYMKQSPPESPILVHCSAGVGRTGTFIAIDRLIYQIENENTVDVYGIVYDLRMHRPLMVQTEDQYVFLNQCVLDIVRSQKDSKVDLIY	soluble
MGSDKIHHHHHHMSKNEIIWFDGKWSDSGVPMIGAADHAFWMASTVFDGARAINGHLPDLSAHSQRVINSALTMGMKPKIDRQEIERLVHEGMSHLTNQETDYYIKMLFFCPGGFLLPDADTTTFALHIFEAPLPEDKGFSATFSEYRRPAPSMAPTEAKASCLYPNTQRIIRDAIARGFENAVVLDSDGNVAEFAVANLWIVRDGVALTPTPNGSFLNGITRQRVMALLRDDGITVRETQLAPSDVMEADEVFSTGNHGKVLHCNRVEDRSLPYGPIAQRARELYMAYAHTC	not soluble
QVQLQESGPGLVKPSETLSLTCTVSGASISSYYWSWIRQPPGKGLEWIGYIGGEGSTNYNPSLKSRVTISVDTSKNQFSLKLRSVTAADTAVYYCARERLGIGDYWGQGTLVTVSSASTKGPSVFPLAPSSKSTSGGTAALGCLVKDYFPEPVTVSWNSGALTSGVHTFPAVLQSSGLYSLSSVVTVPSSSLGTQTYICNVNHKPSNTKVDKKVEPK	soluble
